The values that follow come from patent publication US9296994B2, “Archease as RNA ligaes complex member” (IMBA—INSTITUT FÜR MOLEKULARE BIOTECHNOLOGIE GMBH, priority 2012, dated 2016).

In the assay the test system is cleaved Xbp1 RNA minimal substrate. Description: In vitro Xbp1 splicing (exon ligation) assay with Ire1 pre-cleaved Xbp1 RNA. It counts as biochemical, human. Conditions: addition of recombinant protein. From the text:
FIG. 8: The human tRNA ligase HSPC117 and Archease are both required for non-conventional splicing of Xbp1 mRNA during the Unfolded Protein Response (UPR). A) Experimental outline for in vitro splicing assay. B) An internally labeled fragment of Xbp1 mRNA was pre-cleaved with recombinant Ire1 endonuclease and supplemented with buffer or HeLa whole-cell extract (wce) for the indicated time points to allow ligation of exon halves. Formation of splice product is specific to the presence of both Ire1 and cell extract. Lanes marked “unspliced” and “spliced” contain control transcripts to mark the size of the splice product. C) HSPC117 and Archease both contribute to non-conventional splicing. 3′ end labeled Xbp1 was pre-cleaved with Ire1 and supplemented with whole-cell extract from HeLa cells treated with siRNAs as indicated above the lanes. Cell extracts were harvested 72 hrs post transfection. D) Ligase activity for non-conventional splicing resides in HSPC117 but not in Archease. In vitro splicing assay using 3′end labeled Xbp1 carried out using whole cell extract (input) or FLAG-IP from HEK293 cells stably expressing FLAG-HSPC117, FLAG-Archease or FLAG-DDX1. Ligation activity is only found in IPs of integral members of the tRNA ligase complex. E) Non-conventional splicing activity is stimulated by addition of Archease. Splicing assay using 3′ end labeled Xbp1 carried out as above with addition of buffer or recombinant protein as indicated above the lanes. […] Bovine Serum Albumine (BSA) was included as control.
For the splicing assay RNA was prepared by T7-transcrition from PCR product containing spliced and unspliced form of human Xbp1. Substrates were labelled internally using a-GTP and at the 3′end using ligation to pCp. Substrate was pre-cleaved with recombinant Ire1 for 5 mins in tRNA ligation buffer with subsequent addition of protein extract of FLAG-IP eluate to total volume of 5 μl. Samples were treated with proteinase K and phenol-chloroform extracted prior to loading on 10% PAGE gel.
Perturbation of normal ER function causes mis- or unfolded proteins to accumulate leading to activation of the unfolded protein response (UPR). One of three UPR pathway inducers in mammals, the ER transmembrane protein Ire1, cleaves the Xbp1 mRNA specifically to remove a 26 nt intron (FIG. 8A). […] None of the additional four components of the tRNA ligase complex were required for ligation in agreement with previous findings (WO 2012/28606). […] The reduced ligation activity seen in Archease-depleted extracts raised the question whether Archease is an RNA ligase or rather acts to stimulate the ligation activity of other ligases. To address this question stable cell lines expressing FLAG-tagged versions of HSPC117, Archease, and DDX1 (a DEAD-box helicase component of the human tRNA ligase complex) were generated and the Xbp1 ligation assay using FLAG-IPs was performed.
To further address the stimulatory activity of Archease both HSPC117 and Archease were depleted by RNAi and then an Archease rescue-construct containing either WT or MUT Archease was introduced.

B1: wild-type Archease: Homo sapiens Archease protein (SEQ ID NO: 28), recombinant, enhances RNA ligase activity of HSPC117 (protein, listed as Homo sapiens)
chain: MAQEEEDVRDYNLTEEQKAIKAKYPPVNRKYEYLDHTADVQLHAWGDTLEEAFEQCAMAMFGYMTDTGTVEPLQTVEVETQGDDLQSLLFHFLDEWLYKFSADEFFIPREVKVLSIDQRNFKLRSIGWGEEFSLSKHPQGTEVKAITYSAMQVYNEENPEVFVIIDI
As for B1, the “Stimulation of ligation of Xbp1 RNA minimal substrates by affinity purified human tRNA ligase complex” value is reported as “strongly stimulated ligation”.
